Measured values published in patent US20100048412A1.

Target: R19-Ava-…-NH2 (2)
Assay: cell-based or functional assay

- suppression of peptide digestion by 420 nM PSA after addition of the protease inhibitor mix (AEBSF, Aprotinin, Elastatinal, GGACK): > 90%
Substance: prostate-specific antigen (PSA), proteolytically active (from UniProt P07288 25-261) (enzyme)
